Experimental findings from patent US20160257756A1 (CONSEJO SUPERIOR DE INVESTIGACIONES CIENTIFICAS C S I C, published 2016) are described below.

The test addresses T1, human chemokine receptor CCR9 (human, UniProt P51686 1-369, N-glycosylated at Asn32 on cells (removed by PNGase F in some Western blots); the letters do not carry this).
T1 construct: On stably transfected HEK293 cells, endogenous on MOLT-4 cells, thymocytes and blood lymphocytes; also as membrane extracts in Western blots (with or without PNGase F); also called hCCR9; human CCR9
T1 sequence: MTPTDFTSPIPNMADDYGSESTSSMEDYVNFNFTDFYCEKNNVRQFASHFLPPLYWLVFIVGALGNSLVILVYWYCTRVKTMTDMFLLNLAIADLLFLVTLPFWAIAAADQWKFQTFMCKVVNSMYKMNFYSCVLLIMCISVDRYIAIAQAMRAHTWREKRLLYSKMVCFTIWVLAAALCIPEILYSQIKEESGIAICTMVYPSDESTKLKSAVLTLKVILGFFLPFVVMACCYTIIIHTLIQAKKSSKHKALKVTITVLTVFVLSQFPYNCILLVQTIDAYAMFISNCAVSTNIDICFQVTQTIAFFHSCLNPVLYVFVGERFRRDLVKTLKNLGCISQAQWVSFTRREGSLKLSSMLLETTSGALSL
The test can be described thus: flow cytometry on MOLT-4 cells, hCCL25 10 µg/ml before 91R (0.5 µg/ml). Here is the method: To study whether CCL25 affects CCR9 recognition by 91R, MOLT-4 cells were preincubated alone or with hCCL25, in the presence of sodium azide to inhibit receptor internalization (40 min, 4° C.), followed by incubation with 91R and flow cytometry analysis.
(In general: A flow cytometer gives signals particle by particle.)

B1: recombinant human CCL25 (ligand, UniProt O15444 24-150, looked up)
chain: QGVFEDCCLAYHYPIGWAVLRRAWTYRIQEVSGSCNLPAAIFYLPKRHRKVCGNPKSREVQRAMKLLDARNKVFAKLHHNTQTFQAGPHAVKKLSSGNSKLSSSKFSNPISSSKRNVSLLISANSGL
notes: Bought (Peprotech); also called hCCL25; TECK
As for B1, the binding result is recorded as “binds”.
